Substitutions are numbered along the chain they refer to. Numbers in names are those of the source.
B1: GST-mouse RMP-WT (natural protein, UniProt Q3TLD5 1-531, looked up)
chain: MEPPSEPEPEPQPLAEASAAAPLRAPEVARLREEQEKVVTNCQEKIQHWEKVDNDYSALQERLRTLPDKLSYDVMVPFGPLAFMPGKLVHTNEVTVLLGDNWFAKCSAKQAVGLVEHRKEHVRKTIDDFKKVLKNFESRVEFTEDLQKMSDAAGDFVDIREEIKSDFEFKGKQRIAHKPHSKPKTSDIFEADFENGVKPKNTFDADELWARLEELERQEELLGELESKPDTVIANGEDRVSSEEEKEGADTGVNVVSPVTDSSAASSCKRRAGNAGLPNGQVNSLNYSVNGSNSYHSNKDDDEEEEDDDDDDDEDDDNESDHAISADNSIPTIYFSHTVEPKRVRINTGKNTTLKFSEKKEEAKRKRKSGAGSHATHELPAIKSPADIYRVFVDVVNGEYVPRKSILKSRSRENSVCSDTSESSAADVEDRRGLLRSTSSEEAVATEAGGSSLDELQENHPKKPLPSGVSEAFSGTVIEKEFLSPSLAPYSAIAHHALPTIPERKEVPSEVSEEPTKRVSKFRAARLQQRS
B2: GST-mouse RMP-S439A (natural protein, UniProt Q3TLD5 1-531, looked up)
chain: B1 chain with S439A

Target: T1, His-mouse IKKβ (purified) (mouse, UniProt O88351 1-757)
T1 sequence (looked up): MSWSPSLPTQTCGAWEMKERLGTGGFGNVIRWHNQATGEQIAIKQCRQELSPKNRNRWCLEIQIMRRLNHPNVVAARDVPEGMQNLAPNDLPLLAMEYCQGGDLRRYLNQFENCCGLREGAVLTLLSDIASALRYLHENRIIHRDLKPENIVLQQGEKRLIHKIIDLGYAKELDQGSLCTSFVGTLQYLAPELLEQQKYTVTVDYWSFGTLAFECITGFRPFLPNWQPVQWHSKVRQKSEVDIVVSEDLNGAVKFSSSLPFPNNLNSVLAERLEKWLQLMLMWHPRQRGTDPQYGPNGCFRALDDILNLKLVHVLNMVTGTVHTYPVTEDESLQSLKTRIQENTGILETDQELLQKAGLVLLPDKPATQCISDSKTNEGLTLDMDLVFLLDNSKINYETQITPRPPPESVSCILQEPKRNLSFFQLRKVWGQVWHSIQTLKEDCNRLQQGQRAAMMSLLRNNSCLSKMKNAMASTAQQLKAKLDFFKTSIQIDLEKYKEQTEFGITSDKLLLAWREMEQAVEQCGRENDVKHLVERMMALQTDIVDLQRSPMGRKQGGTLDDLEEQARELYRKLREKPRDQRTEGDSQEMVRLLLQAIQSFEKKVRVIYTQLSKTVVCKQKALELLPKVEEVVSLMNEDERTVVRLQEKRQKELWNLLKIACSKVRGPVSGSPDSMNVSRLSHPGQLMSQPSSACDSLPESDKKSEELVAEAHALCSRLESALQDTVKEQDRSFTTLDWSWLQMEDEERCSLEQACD
Test: pull-down

Binder	binding result
B1	binds
B2	binds
